Data reported in the nanobody polyreactivity screen of Harvey et al. (2022).

Assay: yeast display, Sf9 membrane polyspecificity reagent, FACS + sequencing; frameworks hold sequencing errors
How it was run: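 In a synthetic yeast display library (Saccharomyces cerevisiae BJ5465), nanobody expression was induced with galactose for 36–48 hours. FACS gates were set low and high (top ~1%) using anti-HA fluorescence for expression and streptavidin fluorescence for binding of the Sf9 membrane reagent. Each polyreactivity label is drawn from the gate of origin.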

QVQLVESGGGLVQAGGSLRLTCAASGSTYYSYAMGWYRQATGKERELVAAITSRGDRTYYADSVQGRFTISRDNAKNTVYLQMNSLKPEDTAVYYCAAEQSWQGYAYYYCGQGTQVTVSS
polyreactivity (PSR sort gate): high polyreactivity

QVQLVESGGGLVQAGGSLRLTCAASGYIFSTYAMGSYRQAPGKERELVASISENGGSTYYADSVKGRFTISRDNAKNTVYLQMNSLKPEDTAVDYCNADAYVDVDDGDYWGEGTQVTVSS
polyreactivity (PSR sort gate): low polyreactivity

QVQLVESGGGLVQAGGSLRLTCAASGYIFYRYALGWYRKAPGKERELVAAINSGGSTYYADSVKGRFTISRDNAKNTVYLQMNSLKPEDTAVYYCNVLGWWHVWVYDYWGQGTQVTVSS
polyreactivity (PSR sort gate): high polyreactivity

QVQLVESGGGLVQAGGSLRLTCAASGYIIDWNTMVCYRHEPGKERELVAAITESSGSTYYADSVKGRFTISRDNAKNTVYLQMNSLKPEDTAVYYCAAELDVFVSICSRFHFEYWGQGTQVTVSS
polyreactivity (PSR sort gate): low polyreactivity

QVQLVESGGGLVQAGGSLRLTCAASGYKFKSNVMGWYRQAPGKERELVAAISWSGGRTYYADSLKGRFTISRDNAKNTVYLQMNSLKPEDTAVYYCAAVGRQSNYYVDYDYWGQGTQVTVSS
polyreactivity (PSR sort gate): high polyreactivity

QVQLVESGGGLVQAGGSLRLTCAASGYTFRAYVMGWYRQAPGKERELVAGITRRGGTTYYADSVKGRFTISRYNAKNTVYLQMNSLKPEDTAVYYCNAVYRSGSIPYDSWGQGTQVTVSS
polyreactivity (PSR sort gate): high polyreactivity

QVQLVESGGGLVQAGGSLRLTCAASGYTFVLNALGWYRQAPGKEREFVAAITWSGGSTYYADSVKGRFTISRDNAKNTVYLQMNSLKAEDTAVYYCAADPDSGQVPFDYWGQGTQVTVSS
polyreactivity (PSR sort gate): low polyreactivity

QVQLVESGGGLVQAGGSLRLTCAASGYTFYPYAMGWYRQAPGKERELVAAISWSGGSTYYADSVKGRFTISRDNAKNTVYLQMNSLKPEDTAVYYCNADSGWFGYDYWGKGTQVTVSS
polyreactivity (PSR sort gate): low polyreactivity

QVQLVESGGGLVQAGGSLRLTCAASVSIFSVYARGWYRQAPGKERELVADINIGGASTYYADSVKGRFTISRDNAKNTVFLQMNSVIPEDTAVYSCAKEYYEGYFPTFDYDYWGQGTQVNVSS
polyreactivity (PSR sort gate): low polyreactivity

QVQLVESGGGLVQAGGSLRLTCAASVSTIAGNAMGWYRQAPGKERELVAVITRVGSTNYADSVKGRFTISRDNAKNTVYLQMKSLKPEDTEVYYCARYGFLLDYWRGGYYWGQGTQVTVSS
polyreactivity (PSR sort gate): high polyreactivity

QVQLVESGGGLVQAGGSLRLTCDASGSTFVYYAMGWYRQAPGKERELVAAITFSGGTTFYADSVKGRFTISRDNANNTVYLQMNSLKPEDTAVYYCAADAGFADQYANYHGDDYWGQGTQVTVSS
polyreactivity (PSR sort gate): low polyreactivity

QVQLVESGGGLVQAGGSLRRTCAASGSIFVGYAMGWYRQEPGKERELVASITNGDSTNYADSVKGRFTISRDNAKNTVSYQMNSLKPEDTAVYYCAADYYSVHPSGWYGYEYWGQGTQVTVSS
polyreactivity (PSR sort gate): low polyreactivity

QVQLVESGGGLVQAGGSLRVSCAASGCTFVDYAMCWYRQAPGKERELVAGITSGGSTNYADSVKGRFTISRDNAKNTVYLQMNSVKPEDTAVYDCNADPGQDTPGYTRPEYDYWGQGTQVTVSS
polyreactivity (PSR sort gate): low polyreactivity

QVQLVESGGGLVQAGGSLRVSCAASGFTFSHYAMGWYRQAPGKERELVAAISWGGGSTYYADSVKGRFTISRDNAQNTVYLQMNSLKPEDTAVYYCAARYVLFSNRFDYWGQGTQVTVSS
polyreactivity (PSR sort gate): high polyreactivity

QVQLVESGGGLVQAGGSLRVSCAASGFTFYGYAMGWSRQAPGKEREVVAAISWSGGSTYYADSVKGRFTISRDNAKNTVYLLMNRLKAEDTAVYYCAKKWTAPGKGYPRSPGGYGYWGQGTQVTVSS
polyreactivity (PSR sort gate): high polyreactivity

QVQLVESGGGLVQAGGSLRVSCAASGIIFGPYVMGWSRQAPGKERELVATISRTGDTYYADSVKGRFTISRDNAKNTVYLQMNSLKPEDTAVYYCNTQDHGYGFTMDYWGQGTQVTVSS
polyreactivity (PSR sort gate): low polyreactivity

QVQLVESGGGLVQAGGSLRVSCAASGISFGHYTMGWYRQATGKERELVATITTSGGRTYYADSVKGRFTISRDNAKNTVYLQMNSLKPEDTAVYYCATLSWYPFEYWGQGTQVTVSS
polyreactivity (PSR sort gate): high polyreactivity

QVQLVESGGGLVQAGGSLRVSCAASGLTFRFYAMGWYRQAPGKERELVAAISTSGGSTYYADSVKGRFTISRDNAMNTVYLQMNSLKPEDTAVYYCAARARYYHSRYDYWGQGTQVTVSS
polyreactivity (PSR sort gate): high polyreactivity

QVQLVESGGGLVQAGGSLRVSCAASGLTSIHYMGWYRQAPGKERELVATITSSTGSTYYADSVKGRFTISRDNAKNTVYLQMNSLKPEDTAVDYCAAESFGADGPYQPSYDYWGQGTQVTVSS
polyreactivity (PSR sort gate): low polyreactivity

QVQLVESGGGLVQAGGSLRVSCAASGNIFGEYAMGWYRQAPGKERELVAAITNSGGRTHYADSVKGRFTISRDNAKNTVYLQMNSLKPEDTAVYYCAAPTKYRSRRYYWGQGTQVTVSS
polyreactivity (PSR sort gate): high polyreactivity

QVQLVESGGGLVQAGGSLRVSCAASGRIFILNTMGCYRQAPGKETELVAGISYSGSTYYADSVKGRFTISRDNAKNTVYLQMNSLKPEATAVYYCAAEYDAAWYNEGYYYWGQGTQVTVSS
polyreactivity (PSR sort gate): low polyreactivity

QVQLVESGGGLVQAGGSLRVSCAASGRIIGQYAMGWSRQAPGKEWELVASISRRGGSTYYAASVKGRFTISRDNAKKTVYLQMYSLKPEDTAVYYCAKERTYGHYDYWGQGTQVTVSS
polyreactivity (PSR sort gate): high polyreactivity

QVQLVESGGGLVQAGGSLRVSCAASGRTFGIYAMGWYRQAPGKEREFVAAISWSGTSTHYADSVKGRFTISRDNAKNTFYLQMNSLKPEDTAVYYCATRRSHYGKYDYWGQGTQVTVSS
polyreactivity (PSR sort gate): high polyreactivity

QVQLVESGGGLVQAGGSLRVSCAASGSIFIGYAMGWSRQAPGKERELVAAINDSGDRTYYADSVKGRFTISRDNAKNTVYLQMNSLKPEDTAVYYCAADLVSLDPEYDYWGQGTQVTVSS
polyreactivity (PSR sort gate): low polyreactivity

QVQLVESGGGLVQAGGSLRVSCAASGSNFGGYAMGWYRQAPGKERELVAAISSRGIDTTYADSVKVRFTISRDNAKNTVYLQMYSLKPDDTAVYYCAEFVSDATVGPSNGLDYWGQGTQVTVSS
polyreactivity (PSR sort gate): low polyreactivity

QVQLVESGGGLVQAGGSLRVSCAASGSTCDVNAMGWYRQAPGKERELVAAMSWSDDATYYAYSVKGRFTISRDNAKNTVYVQMNSLKPEDTAVYYCAADGRYGWYYAVYNGEDYWGQGTQVTVSS
polyreactivity (PSR sort gate): high polyreactivity

QVQLVESGGGLVQAGGSLRVSCAASGSTFPYYTMGWYRQAPGKERELVDVMTIRGGSTYYAHSVNGRCTHSRDNAKNTVNLQMNSLKPEDTAVNYCAPTGQLQGWYDMYYWGQGTQVTVSS
polyreactivity (PSR sort gate): low polyreactivity

QVQLVESGGGLVQAGGSLRVSCAASGSTFVRNAMGGYRQAPGKETELVAFISTSGTRTHYADSVKGRFTISRDNAKNTVYFQMNSLKPEDTAVYYCNRRVYGIVTRDYWGQGTQVTVSS
polyreactivity (PSR sort gate): high polyreactivity

QVQLVESGGGLVQAGGSLRVSCAASGYTFVIYAMGWYRQAPGKERELVAAITTIGGRTYYADSVKGRFTISRDNAKNTVYLQMYSLKPEDTAVYYCATAAVTPVWYDYWGQGTQVTVSS
polyreactivity (PSR sort gate): low polyreactivity

QVQLVESGGGLVQAGGSLRVSSAASGRIFYLYVMAWYRQAPGKERELVAGITGSGGNTYYADSVKGRCTISRDNAKNTVDLQMNSLKPEDTAVYFCNDRFRARPRMGYWGQATQVTVSS
polyreactivity (PSR sort gate): high polyreactivity

QVQLVESGGGLVQAGGSLSISCAASGLTFSYYAMGWYRQAPGKERELGAAIAGRTGRPYYADSVKGRFTISRDNAKNTVYLQMNSLKPEDTAVFYSAAGYTFSRYDDDYWGQGTQVTVSS
polyreactivity (PSR sort gate): low polyreactivity
